Source: US20230235013A1 (MABSOLVE, published 2023)
Changes are numbered by the printed parent chain. Numbers in names are those of the source.

B1: anti-CD20 (rituximab) human IgG1 L234K/L235R/G236R (antibody)
heavy: QVQLQQPGAELVKPGASVKMSCKASGYTFTSYNMHWVKQTPGRGLEWIGAIYPGNGDTSYNQKFKGKATLTADKSSSTAYMQLSSLTSEDSAVYYCARSTYYGGDWYFNVWGAGTTVTVSSASTKGPSVFPLAPSSKSTSGGTAALGCLVKDYFPEPVTVSWNSGALTSGVHTFPAVLQSSGLYSLSSVVTVPSSSLGTQTYICNVNHKPSNTKVDKKVEPKSCDKTHTCPPCPAPEKRRGPSVFLFPPKPKDTLMISRTPEVTCVVVDVSHEDPEVKFNWYVDGVEVHNAKTKPREEQYNSTYRVVSVLTVLHQDWLNGKEYKCKVSNKALPAPIEKTISKAKGQPREPQVYTLPPSRDELTKNQVSLTCLVKGFYPSDIAVEWESNGQPENNYKTTPPVLDSDGSFFLYSKLTVDKSRWQQGNVFSCSVMHEALHNHYTQKSLSLSPGK
light: QIVLSQSPAILSASPGEKVTMTCRASSSVSYIHWFQQKPGSSPKPWIYATSNLASGVPVRFSGSGSGTSYSLTISRVEAEDAATYYCQQWTSNPPTFGGGTKLEIKRTVAAPSVFIFPPSDEQLKSGTASVVCLLNNFYPREAKVQWKVDNALQSGNSQESVTEQDSKDSTYSLSSTLTLSKADYEKHKVYACEVTHQGLSSPVTKSFNRGEC
notes: EU numbering; also called 2-23; 1-88; copies: 2 + 2
B2: anti-CD20 (rituximab) human IgG1 L234K/L235V/G236R (antibody)
heavy: B1 heavy with R239V
light: B1 light
notes: EU numbering; also called 2-26; 1-91; copies: 2 + 2
B3: anti-CD20 (rituximab) human IgG1 L234Q/L235V/G236R (antibody)
heavy: B1 heavy with K238Q, R239V
light: B1 light
notes: EU numbering; copies: 2 + 2
B4: anti-CD20 (rituximab) human IgG1 L234T/L235K/G236R (antibody)
heavy: B1 heavy with K238T, R239K
light: B1 light
notes: EU numbering; also called 2-58; copies: 2 + 2
B5: anti-CD20 (rituximab) human IgG1 L234R/L235E/G236R (antibody)
heavy: B1 heavy with K238R, R239E
light: B1 light
notes: EU numbering; also called 2-37; copies: 2 + 2
B6: anti-CD20 (rituximab) human IgG1 L234R/L235D/G236R (antibody)
heavy: B1 heavy with K238R, R239D
light: B1 light
notes: EU numbering; copies: 2 + 2
B7: anti-CD20 human IgG1 L234T/L235T/G236R (antibody)
heavy: B1 heavy with K238T, R239T
light: B1 light
notes: also called 2-63; 1-165
B8: anti-CD20 human IgG1 L234G/L235S/G236R (antibody)
heavy: B1 heavy with K238G, R239S
light: B1 light
notes: also called 2-19; 1-59
B9: anti-CD20 human IgG1 L234D/L235K/G236R (antibody)
heavy: B1 heavy with K238D, R239K
light: B1 light
notes: also called 2-7; 1-23
B10: anti-CD20 human IgG1 L234R/L235I/G236R (antibody)
heavy: B1 heavy with K238R, R239I
light: B1 light
notes: also called 2-39
B11: anti-CD20 human IgG1 L234A/L235S/G236R (antibody)
heavy: not shown
light: B1 light
notes: also called 2-4; 1-14
B12: anti-CD20 human IgG1 L234K/L235V/G236R (antibody)
heavy: B1 heavy with R239V
light: B1 light
notes: also called 2-26; 1-91
B13: anti-CD20 human IgG1 L234K/L235S/G236R (antibody)
heavy: B1 heavy with R239S
light: B1 light
notes: also called 2-24; 1-89
B14: anti-CD20 human IgG1 L234S/L235G/G236R (antibody)
heavy: B1 heavy with K238S, R239G
light: B1 light
notes: also called 2-47; 1-140
B15: anti-CD20 human IgG1 L234K/L235R/G236R (antibody)
heavy: B1 heavy
light: B1 light
notes: also called 2-23; 1-88
B16: anti-CD20 human IgG1 L234R/L235R/G236R (antibody)
heavy: B1 heavy with K238R
light: B1 light
notes: also called 2-43
B17: anti-CD20 human IgG1 L234R/L235K/G236R (antibody)
heavy: B1 heavy with K238R, R239K
light: B1 light
notes: also called 2-40
B18: anti-CD20 human IgG1 L234S/L235R/G236R (antibody)
heavy: B1 heavy with K238S
light: B1 light
notes: also called 2-51
B19: anti-CD20 human IgG1 L234Q/L235A/G236R (antibody)
heavy: not shown
light: B1 light
notes: also called 2-27

target: T1, Human C1q (Sigma Cat. No. 20476), HRP-labelled (human, UniProt P02745 23-245; P02746 28-253; P02747 29-245); experiment: ELISA, antibody coated, HRP-C1q; Expt 1, buffer alone 0.061
T1 construct: Coupled to horse-radish peroxidase with Lightning-Link kit; also called HRP-labelled C1q

| Mean Absorbance | Binder |
| --- | --- |
| 0.059 absorbance (450 nm) | B1 |
| 0.073 absorbance (450 nm) | B2 |
| 0.032 absorbance (450 nm) | B3 |
| 0.126 absorbance (450 nm) | B4 |
| 0.048 absorbance (450 nm) | B5 |
| 0.038 absorbance (450 nm) | B6 |

target: T2, Histidine-tagged recombinant human FcγRI (CD64) (human, UniProt P12314 16-288, limits assumed); experiment: SPR, His-FcγRI captured; Expt 1;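 also: SPR at 25 °C on anti-His antibody chip capturing FcγRI, Fc-variant antibodies injected at 100 µg/mL for 1 min, signal near end of injection minus buffer blank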
T2 construct: bought

| Corrected response (RU) | Binder |
| --- | --- |
| 1.3 RU | B7 |
| -0.1 RU | B8 |
| -1.4 RU | B9 |
| -0.8 RU | B10 |
| 0 RU | B11 |
| -1.7 RU | B12 |
| -1.7 RU | B13 |
| 2.6 RU | B14 |
| 0.6 RU | B15 |
| -0.4 RU | B16 |
| 0 RU | B17 |
| -1.1 RU | B18 |

target: T3, human FcRn (R&D Systems Cat. No. 8639-Fc) (human, UniProt P55899 24-297; P61769 21-119); experiment: SPR, FcRn captured; Expt 1

| Corrected and normalised response (% of wild-type reference) | Binder |
| --- | --- |
| 101 % of wild-type reference | B1 |
| 101 % of wild-type reference | B2 |
| 97.3 % of wild-type reference | B3 |
| 99.2 % of wild-type reference | B4 |
| 99 % of wild-type reference | B5 |
| 95.5 % of wild-type reference | B6 |

target: T4, human FcγRIIIA (F158) (human, UniProt P08637 17-208); experiment: SPR, FcγRIIIA captured; also: test concentration or dose not given here
T4 construct: bought; F158 allele
T4 sequence (P08637 17-208 limits assumed): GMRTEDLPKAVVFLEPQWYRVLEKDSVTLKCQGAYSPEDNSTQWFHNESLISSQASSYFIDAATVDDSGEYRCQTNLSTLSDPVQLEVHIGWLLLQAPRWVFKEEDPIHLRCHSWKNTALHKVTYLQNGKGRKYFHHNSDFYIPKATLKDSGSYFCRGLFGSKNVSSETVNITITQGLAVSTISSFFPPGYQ

| Corrected response (RU) | Binder |
| --- | --- |
| 17.1 RU | B7 |
| 5.8 RU | B8 |
| 3.7 RU | B9 |
| 2.7 RU | B10 |
| 6 RU | B11 |
| 4.4 RU | B19 |
| 5.5 RU | B12 |
| 7.3 RU | B13 |
| 3.8 RU | B14 |
| 7.1 RU | B15 |
| 10.2 RU | B16 |
| 4.4 RU | B17 |
| 2.4 RU | B18 |

target: T3, human FcRn (R&D Systems Cat. No. …); experiment: SPR, FcRn captured; Expt 3

| Corrected and normalised response (% of wild-type reference) | Binder |
| --- | --- |
| 99.5 % of wild-type reference | B1 |
| 100 % of wild-type reference | B2 |
| 97.4 % of wild-type reference | B3 |
| 100 % of wild-type reference | B4 |
| 97.8 % of wild-type reference | B5 |
| 96 % of wild-type reference | B6 |

target: T3, human FcRn (R&D Systems Cat. No. …); experiment: SPR, FcRn captured; Expt 2

| Corrected and normalised response (% of wild-type reference) | Binder |
| --- | --- |
| 99.6 % of wild-type reference | B1 |
| 100 % of wild-type reference | B2 |
| 96.6 % of wild-type reference | B3 |
| 100 % of wild-type reference | B4 |
| 98.6 % of wild-type reference | B5 |
| 95.4 % of wild-type reference | B6 |

target: T2, Histidine-tagged recombinant human …; experiment: SPR, His-FcγRI captured; Expt 3;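 also: biacore T200 SPR at 25 °C, Fc-variant antibodies at 100 µg/mL flowed 1 min over anti-His-captured FcγRI, signal taken just before injection end minus a buffer blank cycle; antibody analyte injected at 100 µg/mL for 1 min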

| Corrected response (RU) | Binder |
| --- | --- |
| 3.1 RU | B8 |
| 1.8 RU | B9 |
| 2.4 RU | B11 |
| 3.6 RU | B19 |
| 3.1 RU | B12 |
| 4.1 RU | B13 |
| 3.7 RU | B14 |
| 3.2 RU | B15 |
| 3.9 RU | B17 |
| 1.6 RU | B18 |

target: T3, human FcRn (R&D Systems Cat. No. …); experiment: SPR, FcRn captured; Mean

| Corrected and normalised response (% of wild-type reference) | Binder |
| --- | --- |
| 100 % of wild-type reference | B1 |
| 101 % of wild-type reference | B2 |
| 97.1 % of wild-type reference | B3 |
| 100 % of wild-type reference | B4 |
| 98.4 % of wild-type reference | B5 |
| 95.6 % of wild-type reference | B6 |

target: T2, Histidine-tagged recombinant human …; experiment: SPR, His-FcγRI captured; Expt 2;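 also: biacore T200 SPR at 25 °C, Fc-variant antibodies at 100 µg/mL flowed 1 min over anti-His-captured receptor, signal read near injection end minus third buffer blank; antibody analyte injected at 100 µg/mL for 1 min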

| Corrected response (RU) | Binder |
| --- | --- |
| 2.7 RU | B8 |
| 0.1 RU | B9 |
| -0.2 RU | B10 |
| -1.2 RU | B11 |
| 0.4 RU | B12 |
| 1.1 RU | B13 |
| 1.8 RU | B16 |
| 2.4 RU | B17 |

target: T2, Histidine-tagged recombinant human …; experiment: SPR, His-FcγRI captured; mean;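 also: biacore T200 SPR at 25 °C, anti-His surface capturing FcγRI, Fc-variant antibodies injected at 100 µg/mL for 1 min, signal near injection end minus third buffer blank, three repeats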

| Corrected response (RU), Mean | Binder |
| --- | --- |
| 0.2 RU | B9 |
| 0.1 RU | B10 |
| 0.4 RU | B11 |
| 2.2 RU | B19 |
| 0.6 RU | B12 |
| 2.6 RU | B14 |
| 2.2 RU | B15 |
| 0.7 RU | B16 |
| 0.8 RU | B18 |
